{"source": "paper PMC4999211", "about": "“Amlexanox Blocks the Interaction between S100A4 and Epidermal Growth Factor and Inhibits Cell Proliferation” (PLoS ONE, 2016)", "binders": {"B1": {"name": "human epidermal growth factor (ligand, UniProt P01133 971-1023, looked up)", "chain": "NSDSECPLSHDGYCLHDGVCMYIEALDKYACNCVVGYIGERCQYRDLKWWELR", "notes": "human epidermal growth factor, the mature hormone cut from pro-EGF; three disulfide bonds; 15N-labelled where it was the observed protein in HSQC; also called EGF; recombinant EGF"}}, "target": "T1, mutant S100A4 (C3S, C76S, C81S, C86S) (human, UniProt P26447 1-101, C3S | C76S | C81S | C86S)", "T1 construct": "human S100A4 with all four cysteines mutated to serines; residue numbers 1-101 in the HSQC bar graph; 15N-labelled where it was the observed protein in HSQC; No tag is named; also called mS100A4; quadruple mutant S100A4; source: E. coli BL21 (DE3), pET21b, purified (ammonium sulfate, Hi-Prep Q XL, Hi-Prep Phenyl FF, Superdex 75)", "T1 sequence (P26447 whole entry C3S/C76S/C81S/C86S, one chain of several)": "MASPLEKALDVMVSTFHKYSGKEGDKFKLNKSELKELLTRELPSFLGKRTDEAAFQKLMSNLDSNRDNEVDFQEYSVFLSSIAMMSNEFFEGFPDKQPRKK", "assay": "other fluorescence titration; intrinsic tryptophan fluorescence of EGF (8 uM), excitation 295 nm, emission at 345 nm; mS100A4 added at 0-22 uM; double-reciprocal plot, one-site binding model", "conditions": "both partners purified"}
{"binder": "B1", "values": [{"measurement": "Kd", "value": 5.2, "unit": "µM"}]}
